# Measurements published in US20120308564A1 (published 2012).
# T1: human IL-18 (human, UniProt Q14116 37-193)
# T1 sequence (looked up): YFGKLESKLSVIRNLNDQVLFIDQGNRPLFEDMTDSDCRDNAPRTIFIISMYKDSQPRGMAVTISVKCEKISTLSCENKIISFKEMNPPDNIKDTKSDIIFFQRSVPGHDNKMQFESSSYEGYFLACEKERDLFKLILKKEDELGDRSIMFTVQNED
# Columns and labels:
# human IL-18 [1] = target: T1, human IL-18; experiment: cell-based or functional assay
# human IL-18 [2] = target: T1, human IL-18; experiment: method not given; the same paragraph names BIAcore and FORTEbio as possible methods and mentions 25 C
binder,measurement,setting,value
"H1L2 (SEQ ID NO:7 and SEQ ID NO:11) (antibody, human IgG1, kappa, V domains shown, also called anti-IL-18 antibody H1L2) VH: QVQLVQSGAEVKKPGASVKVSCKVSGEISTGYYFHWVRQAPGKGLEWMGRIDPEDDSTKYAERFKDRVTMTEDTSTDTAYMELSSLRSEDTAVYYCTTWRIYRDSSGRPFYVMDAWGQGTLVTVSS VL: DIQMTQSPSSVSASVGDRVTITCLASEDIYTYLTWYQQKPGKAPKLLIYGANKLQDGVPSRFSGSGSGTDYTLTISSLQPEDFATYYCLQGSKFPLTFGQGTKLEIKR","IL-6 gene expression in IL-18 stimulated ex-vivo human whole blood (Affymetrix microarray), IL-18 50 ng/ml + H1L2 1 ug/ml vs IL-18 alone",human IL-18 [1],7 fold decrease
same,"IRS2 gene expression in IL-18 stimulated ex-vivo human whole blood (microarray), IL18+H1L2 vs IL18 alone",human IL-18 [1],1.4 fold increase
same,"JAK2 gene expression in IL-18 stimulated ex-vivo human whole blood (microarray), IL18+H1L2 vs IL-18 alone",human IL-18 [1],2.1 fold decrease
same,"MCP-1 gene expression in IL-18 stimulated ex-vivo human whole blood (microarray), IL18+H1L2 vs IL18 alone",human IL-18 [1],2.6 fold decrease
same,"MCP-4 gene expression in IL-18 stimulated ex-vivo human whole blood (microarray), IL18+H1L2 vs IL18 alone",human IL-18 [1],2.5 fold decrease
same,"PPAR gamma gene expression in IL-18 stimulated ex-vivo human whole blood (microarray), IL18+H1L2 vs IL18 alone",human IL-18 [1],1.7 fold increase
same,"SOCS3 gene expression in IL-18 stimulated ex-vivo human whole blood (microarray), IL18+H1L2 vs IL-18 alone",human IL-18 [1],1.9 fold decrease
same,"STAT3 gene expression in IL-18 stimulated ex-vivo human whole blood (microarray), IL18+H1L2 vs IL-18 alone",human IL-18 [1],1.6 fold decrease
same,Kd,human IL-18 [2],0.0303 nM
